Targets include ALK(h) (Homo sapiens, UniProt Q9UM73); BRK(h) (Homo sapiens, UniProt Q13882); cKit(h) (Homo sapiens, UniProt P10721); cSRC(h) (Homo sapiens, UniProt P12931); Tie2(h) (Homo sapiens, UniProt Q02763).
Holding throughout (assay): Kinase Profiling Assay
Holding throughout (type): biochemical
What all share (details): for % activity: 100 μM

Another assay addresses T1, ARK5(h) (Homo sapiens, UniProt O60285).
T1 sequence (O60285 1-661): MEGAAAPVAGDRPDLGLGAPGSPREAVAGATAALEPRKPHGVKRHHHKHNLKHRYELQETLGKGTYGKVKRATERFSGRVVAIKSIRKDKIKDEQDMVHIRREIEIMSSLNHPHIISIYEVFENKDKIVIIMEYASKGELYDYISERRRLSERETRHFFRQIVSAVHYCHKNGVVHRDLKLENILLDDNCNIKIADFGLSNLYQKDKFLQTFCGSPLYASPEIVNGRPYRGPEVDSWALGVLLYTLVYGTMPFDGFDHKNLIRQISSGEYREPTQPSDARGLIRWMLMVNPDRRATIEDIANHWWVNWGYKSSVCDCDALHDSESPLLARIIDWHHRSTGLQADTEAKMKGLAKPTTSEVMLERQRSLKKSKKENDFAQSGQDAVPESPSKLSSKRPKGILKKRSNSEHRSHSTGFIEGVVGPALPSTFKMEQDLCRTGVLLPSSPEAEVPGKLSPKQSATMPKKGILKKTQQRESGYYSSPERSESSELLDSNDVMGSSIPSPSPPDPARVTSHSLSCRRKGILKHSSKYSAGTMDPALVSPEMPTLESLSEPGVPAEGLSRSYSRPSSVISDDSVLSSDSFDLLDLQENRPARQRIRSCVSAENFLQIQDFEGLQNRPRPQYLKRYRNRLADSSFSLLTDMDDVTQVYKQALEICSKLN

For another assay, the target named is T2, Bmx(h) (Homo sapiens, UniProt P51813).
T2 sequence (P51813 1-675): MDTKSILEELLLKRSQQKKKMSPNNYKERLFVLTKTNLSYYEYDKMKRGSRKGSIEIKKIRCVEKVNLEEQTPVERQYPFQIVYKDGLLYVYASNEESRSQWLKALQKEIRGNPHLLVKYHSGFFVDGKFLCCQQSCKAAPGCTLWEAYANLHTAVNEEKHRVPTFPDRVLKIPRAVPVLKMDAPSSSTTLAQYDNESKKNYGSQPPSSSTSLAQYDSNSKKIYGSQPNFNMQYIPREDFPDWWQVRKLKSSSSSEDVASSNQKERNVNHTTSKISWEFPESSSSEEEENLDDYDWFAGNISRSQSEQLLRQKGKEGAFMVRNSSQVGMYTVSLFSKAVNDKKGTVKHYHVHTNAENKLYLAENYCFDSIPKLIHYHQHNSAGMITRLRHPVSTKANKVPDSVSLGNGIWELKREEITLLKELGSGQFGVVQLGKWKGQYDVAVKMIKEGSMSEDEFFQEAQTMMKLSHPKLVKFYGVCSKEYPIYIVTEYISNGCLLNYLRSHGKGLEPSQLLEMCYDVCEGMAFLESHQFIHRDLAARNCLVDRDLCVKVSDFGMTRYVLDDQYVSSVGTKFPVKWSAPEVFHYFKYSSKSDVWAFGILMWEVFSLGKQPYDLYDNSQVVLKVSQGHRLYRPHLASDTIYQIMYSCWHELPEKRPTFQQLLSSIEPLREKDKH

For the next assay, the target named is T3, PKD2(h) (Homo sapiens, UniProt Q9BZL6).
T3 sequence (Q9BZL6 1-878): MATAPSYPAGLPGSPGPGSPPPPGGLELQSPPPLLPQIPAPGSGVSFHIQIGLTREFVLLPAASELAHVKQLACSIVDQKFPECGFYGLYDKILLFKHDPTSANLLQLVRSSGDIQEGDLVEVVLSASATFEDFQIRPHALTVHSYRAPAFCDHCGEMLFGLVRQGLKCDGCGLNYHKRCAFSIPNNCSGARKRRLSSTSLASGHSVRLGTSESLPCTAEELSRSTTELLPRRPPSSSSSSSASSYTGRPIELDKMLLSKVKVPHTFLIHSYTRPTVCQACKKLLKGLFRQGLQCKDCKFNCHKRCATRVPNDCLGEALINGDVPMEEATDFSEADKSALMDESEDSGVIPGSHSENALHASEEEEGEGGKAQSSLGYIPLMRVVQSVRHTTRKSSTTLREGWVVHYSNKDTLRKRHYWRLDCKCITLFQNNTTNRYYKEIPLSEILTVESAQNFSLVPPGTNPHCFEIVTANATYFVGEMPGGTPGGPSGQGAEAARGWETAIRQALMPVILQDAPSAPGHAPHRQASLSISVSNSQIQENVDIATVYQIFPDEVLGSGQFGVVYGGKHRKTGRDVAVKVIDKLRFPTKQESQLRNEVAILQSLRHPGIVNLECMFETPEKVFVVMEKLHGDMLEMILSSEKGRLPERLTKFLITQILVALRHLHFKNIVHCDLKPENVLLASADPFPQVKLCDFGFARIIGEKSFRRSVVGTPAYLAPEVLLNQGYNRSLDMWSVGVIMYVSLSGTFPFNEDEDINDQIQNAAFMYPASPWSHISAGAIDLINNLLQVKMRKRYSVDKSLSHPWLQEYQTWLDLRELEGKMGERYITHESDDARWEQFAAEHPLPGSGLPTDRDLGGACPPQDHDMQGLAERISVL

3 substances from patent US10087225B2, “Formulation of MK2 inhibitor peptides” (MOERAE MATRIX, INC., priority 2015, dated 2018) can be followed below.

Chain of ALK(h) (Q9UM73 19-1620): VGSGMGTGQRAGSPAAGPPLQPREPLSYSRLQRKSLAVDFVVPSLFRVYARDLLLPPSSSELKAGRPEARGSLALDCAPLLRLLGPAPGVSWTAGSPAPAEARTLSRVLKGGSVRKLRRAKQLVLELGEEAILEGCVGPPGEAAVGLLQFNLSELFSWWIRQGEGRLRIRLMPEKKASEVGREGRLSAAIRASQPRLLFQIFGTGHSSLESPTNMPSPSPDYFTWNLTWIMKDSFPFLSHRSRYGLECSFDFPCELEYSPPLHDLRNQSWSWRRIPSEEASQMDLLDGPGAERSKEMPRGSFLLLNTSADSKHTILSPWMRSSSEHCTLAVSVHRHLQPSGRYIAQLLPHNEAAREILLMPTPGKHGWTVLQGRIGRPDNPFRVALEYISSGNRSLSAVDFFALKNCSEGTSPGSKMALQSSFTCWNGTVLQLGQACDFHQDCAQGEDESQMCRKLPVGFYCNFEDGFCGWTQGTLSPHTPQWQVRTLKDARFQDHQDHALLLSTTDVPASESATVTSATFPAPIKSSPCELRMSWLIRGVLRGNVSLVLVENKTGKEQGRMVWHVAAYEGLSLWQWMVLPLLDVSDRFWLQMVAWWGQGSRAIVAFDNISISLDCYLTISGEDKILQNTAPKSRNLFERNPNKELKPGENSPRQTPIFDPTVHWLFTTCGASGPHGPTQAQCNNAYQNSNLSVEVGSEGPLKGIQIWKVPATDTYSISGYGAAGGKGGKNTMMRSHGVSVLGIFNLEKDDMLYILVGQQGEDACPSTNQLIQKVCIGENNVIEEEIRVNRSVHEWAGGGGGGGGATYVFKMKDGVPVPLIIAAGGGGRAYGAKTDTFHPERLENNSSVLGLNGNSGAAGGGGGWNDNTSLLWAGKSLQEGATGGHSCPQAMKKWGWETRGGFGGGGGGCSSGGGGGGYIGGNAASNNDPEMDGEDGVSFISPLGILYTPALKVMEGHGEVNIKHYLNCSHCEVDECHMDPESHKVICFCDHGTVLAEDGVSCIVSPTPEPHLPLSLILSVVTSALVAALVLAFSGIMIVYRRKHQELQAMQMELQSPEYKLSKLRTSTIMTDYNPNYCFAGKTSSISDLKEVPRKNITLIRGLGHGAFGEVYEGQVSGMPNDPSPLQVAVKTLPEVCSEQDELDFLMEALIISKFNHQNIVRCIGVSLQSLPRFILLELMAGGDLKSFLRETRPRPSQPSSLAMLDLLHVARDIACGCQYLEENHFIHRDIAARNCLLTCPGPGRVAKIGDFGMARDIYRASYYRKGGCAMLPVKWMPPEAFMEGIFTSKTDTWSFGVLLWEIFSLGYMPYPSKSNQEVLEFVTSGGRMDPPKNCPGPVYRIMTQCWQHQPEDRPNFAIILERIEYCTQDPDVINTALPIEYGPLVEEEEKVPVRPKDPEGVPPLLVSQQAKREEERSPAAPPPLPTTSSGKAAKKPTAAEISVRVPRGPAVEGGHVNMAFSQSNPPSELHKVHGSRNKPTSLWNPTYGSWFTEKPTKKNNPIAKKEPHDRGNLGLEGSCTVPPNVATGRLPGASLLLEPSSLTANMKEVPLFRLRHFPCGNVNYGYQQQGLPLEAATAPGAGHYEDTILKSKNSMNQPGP
Chain of Tie2(h) (Q02763 23-1124): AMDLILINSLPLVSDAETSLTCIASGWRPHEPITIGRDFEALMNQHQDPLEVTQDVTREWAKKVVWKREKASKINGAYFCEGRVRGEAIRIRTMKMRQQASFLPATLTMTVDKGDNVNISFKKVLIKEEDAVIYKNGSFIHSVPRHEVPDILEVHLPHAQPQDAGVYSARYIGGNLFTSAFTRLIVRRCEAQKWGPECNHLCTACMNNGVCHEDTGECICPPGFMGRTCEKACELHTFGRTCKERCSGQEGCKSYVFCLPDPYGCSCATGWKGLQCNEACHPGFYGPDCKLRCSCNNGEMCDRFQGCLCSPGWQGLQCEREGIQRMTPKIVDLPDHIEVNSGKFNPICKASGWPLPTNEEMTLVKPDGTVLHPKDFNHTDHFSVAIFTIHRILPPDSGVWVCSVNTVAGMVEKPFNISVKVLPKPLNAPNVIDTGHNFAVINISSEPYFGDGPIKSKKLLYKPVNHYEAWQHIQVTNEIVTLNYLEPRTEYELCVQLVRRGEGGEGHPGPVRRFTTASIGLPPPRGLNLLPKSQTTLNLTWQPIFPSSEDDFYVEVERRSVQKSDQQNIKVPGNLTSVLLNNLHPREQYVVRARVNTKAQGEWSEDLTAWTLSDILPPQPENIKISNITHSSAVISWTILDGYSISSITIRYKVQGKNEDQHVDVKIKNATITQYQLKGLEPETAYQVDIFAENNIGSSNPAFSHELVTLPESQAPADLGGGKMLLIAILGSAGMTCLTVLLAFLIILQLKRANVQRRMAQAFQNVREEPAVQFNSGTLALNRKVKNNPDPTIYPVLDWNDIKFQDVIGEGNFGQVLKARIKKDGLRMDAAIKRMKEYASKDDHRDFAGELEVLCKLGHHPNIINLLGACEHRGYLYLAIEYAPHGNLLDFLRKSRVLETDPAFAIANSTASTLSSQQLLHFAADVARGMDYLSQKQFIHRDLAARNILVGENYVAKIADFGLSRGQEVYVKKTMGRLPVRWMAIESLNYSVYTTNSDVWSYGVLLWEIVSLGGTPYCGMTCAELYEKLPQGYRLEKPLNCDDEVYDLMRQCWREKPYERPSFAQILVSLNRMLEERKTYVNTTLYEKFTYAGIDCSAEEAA
Chain of BRK(h) (Q13882 whole entry): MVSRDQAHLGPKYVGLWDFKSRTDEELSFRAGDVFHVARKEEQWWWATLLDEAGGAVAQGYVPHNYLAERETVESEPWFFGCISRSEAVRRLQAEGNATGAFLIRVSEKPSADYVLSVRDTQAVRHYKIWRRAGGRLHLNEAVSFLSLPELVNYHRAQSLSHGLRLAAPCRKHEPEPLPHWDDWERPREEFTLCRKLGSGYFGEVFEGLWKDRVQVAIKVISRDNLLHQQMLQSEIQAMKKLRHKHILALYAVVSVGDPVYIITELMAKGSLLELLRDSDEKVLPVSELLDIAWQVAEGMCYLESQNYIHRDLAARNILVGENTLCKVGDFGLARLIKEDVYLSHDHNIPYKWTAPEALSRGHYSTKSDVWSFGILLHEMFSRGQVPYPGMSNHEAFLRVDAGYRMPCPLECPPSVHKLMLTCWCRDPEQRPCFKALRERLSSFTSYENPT

For H-YARAAARQARAKALARQLGVAA-OH [MMI-0100], the activity at 100 µM on ALK(h) was found to be 118%; at ARK5(h) it was 108%; on Bmx(h) it was 62%; at BRK(h) it was 70%; at cKit(h), 95%; at cSRC(h), 70%. Further, the figures for the activity at 100 µM at PKD2(h) and on Tie2(h) were 84% and 28%, respectively.

As for “HRRIKAWLKKIKALARQLGVAA (Mammalian) [MMI-0500]”, the “% activity” value with ALK(h) is on record as 12%; with ARK5(h) it was 20%; in the assay with Bmx(h), 45%; in the assay with BRK(h), 41%; with cKit(h), 45%; with cSRC(h) it was 30%. Also, the “% activity” value came to 10% with PKD2(h) and 22% in the assay with Tie2(h).

For “YARAAARQARAKALNRQLGVA (Mammalian) [MMI-0200]”, the “% activity” value with ALK(h) is on record as 95%; in the assay with ARK5(h) it was 93%; with Bmx(h), 76%; with BRK(h), 127%; with cKit(h), 110%; in the assay with cSRC(h), 32%. Also, the “% activity” value was 78% with PKD2(h) and 53% with Tie2(h).
